Data on one molecule can be found in patent US20250333486A1, “Anti-HSP90 alpha antibody and uses thereof” (NATIONAL HEALTH RESEARCH INSTITUTES, priority 2021, published 2025).

“Also recorded” adds a separate entry of the source.

The nature of data set [1]: Mouse splenic enlargement. The note with it: in vivo.
For data set [2], the system named is SW620, PANC-1, and Panc 02 cells. Description: Cell spheroid-forming assay, rHSP90α-induced gain-of-stemness. The format is cell-based, human and mouse. The note with it: conclusion statement. On the procedure: One thousand cancer cells were seeded onto each well of 24-well plates pre-coated with a 4-mm thick layer of 0.5% agarose. After incubation 24 h with serum-free medium at 37° C. plus a 5% CO2 humidified atmosphere, cells were added with PBS or 15 μg/ml of rHSP90α in the absence or presence of 10 μg/ml of control IgG or the tested anti-HSP90α antibody. The incubation was kept for 10-14 days with supplements of some fresh serum-free medium every 3 days. Finally, the cell spheroids characterized by tight, non-adherent, and >100 μm in diameter were photographed and counted under an Olympus IX 71 inverted microscope (Center Valley, PA, USA). The spheroid formation % was calculated by the formula: (number of cell spheroids/1000)×100%.

Data set [3] concerns SW620 and PANC-1 cells. Description: Transwell invasion assay, rHSP90α-induced cancer cell invasion. The format is cell-based, human. The note with it: conclusion statement. As to the method: In a 37° C. and 5% CO2 humidified incubator, cancer cells were subjected to serum starvation in 0.5% FBS-containing medium for 16 h, and then added with PBS or 15 μg/ml of rHSP90α in the absence or presence of 10 μg/ml of control IgG or the tested anti-HSP90α antibody. After another 24 h, the treated cells were harvested as aliquots (1×10^5 cells per aliquot) in 0.5% FBS-containing culture medium, and then each aliquot was seeded into a top chamber of Transwell inserts pre-coated with 5-fold diluted Matrigel (BD Biosciences). Cells were allowed 16 h to invade through the Matrigel toward the bottom chambers containing culture medium plus 10% FBS. The filters of the Transwell inserts were then fixed and stained with Giemsa. Invasive cells on the lower side of filters were photographed using the Axiovert S100/AxioCam HR microscope system (Carl Zeiss, Oberkochen, Germany) and further quantified by the Image-Pro Plus software (Media Cybernetics, Inc., Silver Spring, MD, USA).

Data set [4] is described as follows: Pharmacokinetic assay in male mice. The note with it: IV single dose 10 mg/kg.
Source text: Food and water were available ad libitum at all times. For determination of the serum exposure levels of HH01 antibody, blood samples were collected at Day-0.04, 0.08, 0.25, 1, 2, 3, 7, 9, 14, 16, 18, 21, 23, 25, 35, 42, 49, 56, and 63 post administration.
A short description of data set [5]: Dynamic Light Scattering assay. The format is physicochemical.
Data set [6] has as its system ARPE-19 retinal pigmented epithelial cells. Description: Retinal cell toxicity assay (MTS). It counts as cell-based, human. The note with it: 72 h, up to 594.3 nM (100 μg/ml). As to the method:
ARPE-19 cells were seeded onto 96-well plates at a density of 4000 cells per well, and then treated in triplicate with various concentrations of 17-AAG or anti-HSP90α antibody HH01 for 72 h. The 3-(4,5-dimethylthiazol-2-yl)-5-(3-carboxymethoxyphenyl)-2-(4-sulfophenyl)-2H-tetrazolium (MTS; Sigma-Aldrich) assay was employed and OD490 was measured to evaluate cell viability upon each treatment.

B1: HH01: humanized anti-HSP90α IgG1 antibody, mutant of Clone-2-chimera; VH SEQ ID NO: 12, VL SEQ ID NO: 17 (antibody, V domains shown)
VH: EVQLVESGGGLVQPGGSLRLSCAASGFTFKTYAMNWVRQAPGQGLEWVARIRSKSRNYATYYADSVKDRFTISRDDSKNQFYLQMNNLRTEDTAVYYCVVGGSGFDYWGQGTTLTVSS
VL: DVVMTQTPLSLPVSLGDQASISCRSSQSIVHSNGNTYLEWYLQKPGQSPQLLIYKVSNRFSGVPDRFSGSGSGTDFTLTISSVEAEDLGVYYCFQGSHVPWTFGGGTKLEIK
modifications: Heavy chain variable region; Light chain variable region
Consider B1, for which the mouse splenic enlargement result in data set [1] is given as “will not cause mouse splenic enlargement”. Moreover, in data set [2], the “spheroid-forming activities of pancreatic adenocarcinoma and colorectal cancer cell lines” value is reported as “potently suppresses”. In data set [3], the “invasive activities of pancreatic adenocarcinoma and colorectal cancer cell lines” value is “potently suppresses”. Further, in data set [4], the clearance rate turned out to be 4.3 mL/day/kg and the “volume in steady state” value was 80 mL/kg. In data set [5], the aggregate formation result was “did not easily form aggregate; also recorded: not easy to form aggregate”. In data set [5] (Dynamic Light Scattering), the “size of average diameter” value is given as 19.33 nm and the size range is given as 10-50 nm. In addition, the “cytotoxicity in ARPE-19 cells” value in data set [6] is reported as “did not cause any obvious cytotoxicity; also recorded: not cytotoxic”.
